Source: patent US20250333467A1 (TECTONIC OPERATING, published 2025)

T1: human RXFP1 (human, UniProt Q9HBX9 1-757)
T1 sequence (looked up): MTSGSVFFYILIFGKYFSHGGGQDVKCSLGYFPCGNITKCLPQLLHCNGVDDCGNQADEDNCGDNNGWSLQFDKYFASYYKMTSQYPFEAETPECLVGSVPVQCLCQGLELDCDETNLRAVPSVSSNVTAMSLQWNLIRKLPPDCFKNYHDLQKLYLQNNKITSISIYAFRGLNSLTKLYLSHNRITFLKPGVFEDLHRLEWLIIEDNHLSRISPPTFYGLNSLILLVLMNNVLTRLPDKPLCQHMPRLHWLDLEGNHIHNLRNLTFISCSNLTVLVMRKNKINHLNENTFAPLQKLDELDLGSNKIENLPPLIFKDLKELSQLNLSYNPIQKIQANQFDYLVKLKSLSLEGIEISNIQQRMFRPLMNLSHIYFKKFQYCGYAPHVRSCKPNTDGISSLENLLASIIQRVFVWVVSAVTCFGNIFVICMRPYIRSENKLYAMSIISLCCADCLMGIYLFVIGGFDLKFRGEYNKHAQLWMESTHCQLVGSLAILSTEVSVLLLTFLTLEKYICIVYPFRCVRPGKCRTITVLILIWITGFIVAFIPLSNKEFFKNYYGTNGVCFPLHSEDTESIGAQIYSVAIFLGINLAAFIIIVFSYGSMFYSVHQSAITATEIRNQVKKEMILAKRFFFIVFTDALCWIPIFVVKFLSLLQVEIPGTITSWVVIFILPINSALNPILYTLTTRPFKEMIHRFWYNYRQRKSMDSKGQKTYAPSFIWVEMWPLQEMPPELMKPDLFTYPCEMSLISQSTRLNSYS

T2: rat RXFP1 (rat, UniProt Q6R6I6 1-758)
T2 sequence (looked up): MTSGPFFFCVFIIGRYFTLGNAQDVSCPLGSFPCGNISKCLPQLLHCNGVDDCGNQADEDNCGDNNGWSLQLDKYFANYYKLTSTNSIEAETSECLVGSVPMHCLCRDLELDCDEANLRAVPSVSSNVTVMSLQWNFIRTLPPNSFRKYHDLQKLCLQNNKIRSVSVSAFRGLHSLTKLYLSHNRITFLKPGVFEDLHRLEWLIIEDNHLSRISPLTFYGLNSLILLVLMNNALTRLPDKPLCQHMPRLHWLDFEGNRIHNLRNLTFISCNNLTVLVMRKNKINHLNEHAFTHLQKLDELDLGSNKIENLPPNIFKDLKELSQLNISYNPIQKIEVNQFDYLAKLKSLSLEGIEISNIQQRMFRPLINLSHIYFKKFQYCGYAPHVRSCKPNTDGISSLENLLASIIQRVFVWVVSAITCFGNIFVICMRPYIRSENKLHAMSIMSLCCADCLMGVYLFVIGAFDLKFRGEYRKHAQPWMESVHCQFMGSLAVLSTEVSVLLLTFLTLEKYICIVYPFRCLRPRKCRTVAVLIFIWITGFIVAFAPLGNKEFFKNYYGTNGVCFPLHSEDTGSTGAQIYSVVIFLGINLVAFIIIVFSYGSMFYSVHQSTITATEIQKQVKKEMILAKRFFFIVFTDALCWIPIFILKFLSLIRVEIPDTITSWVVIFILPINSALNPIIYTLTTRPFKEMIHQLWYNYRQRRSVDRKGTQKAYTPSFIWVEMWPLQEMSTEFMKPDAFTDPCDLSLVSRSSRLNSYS


Assays:
Test in all cases: cell-based or functional assay
human RXFP1 [1] = biological target: T1, human RXFP1
human RXFP1 [2] = biological target: T1, human RXFP1; remark: listed apart in the source
rat RXFP1 [3] = biological target: T2, rat RXFP1
human RXFP1 [4] = biological target: T1, human RXFP1; remark: listed apart in the source
rat RXFP1 [5] = biological target: T2, rat RXFP1; remark: listed apart in the source

Potency (cAMP, transient hRXFP1 in HEK293) (human RXFP1 [1]) [nM] | THP1 (endogenous RXFP1) cAMP EC50 (human RXFP1 [2]) [nM] | Transient HEK293 hRXFP1 cAMP EC50 (human RXFP1 [2]) [nM] | Transient HEK293 rRXFP1 cAMP EC50 (rat RXFP1 [3]) [nM] | EC50 for cAMP generation, recombinant human RXFP1 assay (average) (human RXFP1 [4]) [nM] | EC50 for cAMP generation, recombinant rat RXFP1 assay (average) (rat RXFP1 [5]) [nM] | Binder
8 | 63 | 38.2 | 31.2 | – | – | SEQ ID NO: 317 (Fc fusion) DKTHTCPPCPAPEAAGGPSVFLFPPKPKDTLMISRTPEVTCVVVDVSHEDPEVKFNWYVDGVEVHNAKTKPREEQYNSTYRVVSVLTVLHQDWLNGKEYKCKVSNKALAAPIEKTISKAKGQPREPQVYTLPPSRDELTKNQVSLTCLVKGFYPSDIAVEWESNGQPENNYKTTPPVLDSDGSFFLYSKLTVDKSRWQQGNVFSCSVLHEALHSHYTQKSLSLSPGGGSDSWQEEVIKLCGRELVRAQIAICGKSTGGGEGGGEGGGEGRQLYSALANKCCHVGCTKRSLAQFC
0.2 | 2 | 0.19 | 1.15 | 0.2 | 1 | SEQ ID NO: 496 (Fc fusion) DKTHTCPPCPAPEAAGGPSVFLFPPKPKDTLMISRTPEVTCVVVDVSHEDPEVKFNWYVDGVEVHNAKTKPREEQYNSTYRVVSVLTVLHQDWLNGKEYKCKVSNKALAAPIEKTISKAKGQPREPQVYTLPPSRDELTKNQVSLTCLVKGFYPSDIAVEWESNGQPENNYKTTPPVLDSDGSFFLYSKLTVDKSRWQQGNVFSCSVLHEALHSHYTQKSLSLSPGKGGSDSWKEEVIKLCGRELVRAQIAICGKSTASDAAGANANAGARQLYSALANKCCHVGCTKRSLARFC
6.8 | 26 | 10.9 | 13.5 | – | – | SEQ ID NO: 95 (Fc fusion) DKTHTCPPCPAPEAAGGPSVFLFPPKPKDTLMISRTPEVTCVVVDVSHEDPEVKFNWYVDGVEVHNAKTKPREEQYNSTYRVVSVLTVLHQDWLNGKEYKCKVSNKALAAPIEKTISKAKGQPREPQVYTLPPSRDELTKNQVSLTCLVKGFYPSDIAVEWESNGQPENNYKTTPPVLDSDGSFFLYSKLTVDKSRWQQGNVFSCSVLHEALHSHYTQKSLSLSPGEGGSDSWQEEVIKLCGRELVRAQIAICGKSTASDAAGAQADAGARQLYSALANKCCHVGCTKRSLAQFC
8.8 | 100 | 21.5 | 29.1 | – | – | SEQ ID NO: 98 (Fc fusion) DKTHTCPPCPAPEAAGGPSVFLFPPKPKDTLMISRTPEVTCVVVDVSHEDPEVKFNWYVDGVEVHNAKTKPREEQYNSTYRVVSVLTVLHQDWLNGKEYKCKVSNKALAAPIEKTISKAKGQPREPQVYTLPPSRDELTKNQVSLTCLVKGFYPSDIAVEWESNGQPENNYKTTPPVLDSDGSFFLYSKLTVDKSRWQQGNVFSCSVLHEALHSHYTQKSLSLSPGEGGSDSWQEEVIKLCGRELVRAQIAICGQSTASDAAGADANAGARQLYSALANKCCHVGCTKRSLAQFC
10.1 | 200 | 25 | 20.3 | – | – | SEQ ID NO: 118 (Fc fusion) DKTHTCPPCPAPEAAGGPSVFLFPPKPKDTLMISRTPEVTCVVVDVSHEDPEVKFNWYVDGVEVHNAKTKPREEQYNSTYRVVSVLTVLHQDWLNGKEYKCKVSNKALAAPIEKTISKAKGQPREPQVYTLPPSRDELTKNQVSLTCLVKGFYPSDIAVEWESNGQPENNYKTTPPVLDSDGSFFLYSKLTVDKSRWQQGNVFSCSVLHEALHSHYTQKSLSLSPGEGGSDSWQEEVIKLCGRELVRAQIAICGQSTASDAAGAQAQAGARQLYSALANKCCHVGCTKQSLAQFC
4 | 30 | 7.46 | 24.5 | – | – | SEQ ID NO: 86 (Fc fusion) DKTHTCPPCPAPEAAGGPSVFLFPPKPKDTLMISRTPEVTCVVVDVSHEDPEVKFNWYVDGVEVHNAKTKPREEQYNSTYRVVSVLTVLHQDWLNGKEYKCKVSNKALAAPIEKTISKAKGQPREPQVYTLPPSRDELTKNQVSLTCLVKGFYPSDIAVEWESNGQPENNYKTTPPVLDSDGSFFLYSKLTVDKSRWQQGNVFSCSVLHEALHSHYTQKSLSLSPGKGGSDSWQEEVIKLCGRELVRAQIAICGKSTASDAAGADADAGARQLYSALANKCCHVGCTKRSLAQFC
3.9 | 30 | 10.2 | 12.4 | – | – | SEQ ID NO: 91 (Fc fusion) DKTHTCPPCPAPEAAGGPSVFLFPPKPKDTLMISRTPEVTCVVVDVSHEDPEVKFNWYVDGVEVHNAKTKPREEQYNSTYRVVSVLTVLHQDWLNGKEYKCKVSNKALAAPIEKTISKAKGQPREPQVYTLPPSRDELTKNQVSLTCLVKGFYPSDIAVEWESNGQPENNYKTTPPVLDSDGSFFLYSKLTVDKSRWQQGNVFSCSVLHEALHSHYTQKSLSLSPGEGGSDSWQEEVIKLCGRELVRAQIAICGKSTASDAAGADANAGARQLYSALANKCCHVGCTKRSLAQFC
3.5 | 80 | 5.94 | 6.74 | – | – | SEQ ID NO: 111 (Fc fusion) DKTHTCPPCPAPEAAGGPSVFLFPPKPKDTLMISRTPEVTCVVVDVSHEDPEVKFNWYVDGVEVHNAKTKPREEQYNSTYRVVSVLTVLHQDWLNGKEYKCKVSNKALAAPIEKTISKAKGQPREPQVYTLPPSRDELTKNQVSLTCLVKGFYPSDIAVEWESNGQPENNYKTTPPVLDSDGSFFLYSKLTVDKSRWQQGNVFSCSVLHEALHSHYTQKSLSLSPGEGGSDSWQEEVIKLCGRELVRAQIAICGKSTASDAAGAQAQAGARQLYSALANKCCHVGCTKQSLAQFC
11.1 | 90 | 19.1 | 21.3 | – | – | SEQ ID NO: 93 (Fc fusion) DKTHTCPPCPAPEAAGGPSVFLFPPKPKDTLMISRTPEVTCVVVDVSHEDPEVKFNWYVDGVEVHNAKTKPREEQYNSTYRVVSVLTVLHQDWLNGKEYKCKVSNKALAAPIEKTISKAKGQPREPQVYTLPPSRDELTKNQVSLTCLVKGFYPSDIAVEWESNGQPENNYKTTPPVLDSDGSFFLYSKLTVDKSRWQQGNVFSCSVLHEALHSHYTQKSLSLSPGEGGSDSWQEEVIKLCGRELVRAQIAICGKSTASDAAGADADAGARQLYSALANKCCHVGCTKRSLAQFC
2.8 | 11 | 6.17 | 6.74 | – | – | SEQ ID NO: 104 (Fc fusion) DKTHTCPPCPAPEAAGGPSVFLFPPKPKDTLMISRTPEVTCVVVDVSHEDPEVKFNWYVDGVEVHNAKTKPREEQYNSTYRVVSVLTVLHQDWLNGKEYKCKVSNKALAAPIEKTISKAKGQPREPQVYTLPPSRDELTKNQVSLTCLVKGFYPSDIAVEWESNGQPENNYKTTPPVLDSDGSFFLYSKLTVDKSRWQQGNVFSCSVLHEALHSHYTQKSLSLSPGEGGSDSWQEEVIKLCGRELVRAQIAICGQSTASDAAGAQAQAGARQLYSALANKCCHVGCTKRSLAQFC
